Two molecules from publication PMC7057995, “Structural basis of RNA polymerase I pre-initiation complex formation and promoter melting” can be followed below.

In one data set the target is CF with Rrn7 Δloop α7-α8 (Saccharomyces cerevisiae, UniProt P32786;P40992;Q04712 1-894;1-286+298-514;1-507, internal_change). As to the kind of experiment: EMSA; 0.2 pmol DNA; 0.25-1 pmol CF; binding not impaired; EMSA: 20 mM HEPES/KOH pH 7.8, 10% glycerol, 200 mM KCl, 1 mM MgCl2, 0.1 mg/ml BSA, 1 mM DTT, 30 min, temperature not stated; 6% native gel, 0.5x TBE. The following applies: protein: recombinant; tags: His (Ni-NTA purified); copies: 1;1;1; label: NTS -3 Atto647N; TS -5 Cy3; blunt. For orientation: A gel shift assay detects complexes by their altered migration in electrophoresis.
Sequence of CF with Rrn7 Δloop α7-α8 (P32786 whole entry, stated change not applied, chain 1 of 3): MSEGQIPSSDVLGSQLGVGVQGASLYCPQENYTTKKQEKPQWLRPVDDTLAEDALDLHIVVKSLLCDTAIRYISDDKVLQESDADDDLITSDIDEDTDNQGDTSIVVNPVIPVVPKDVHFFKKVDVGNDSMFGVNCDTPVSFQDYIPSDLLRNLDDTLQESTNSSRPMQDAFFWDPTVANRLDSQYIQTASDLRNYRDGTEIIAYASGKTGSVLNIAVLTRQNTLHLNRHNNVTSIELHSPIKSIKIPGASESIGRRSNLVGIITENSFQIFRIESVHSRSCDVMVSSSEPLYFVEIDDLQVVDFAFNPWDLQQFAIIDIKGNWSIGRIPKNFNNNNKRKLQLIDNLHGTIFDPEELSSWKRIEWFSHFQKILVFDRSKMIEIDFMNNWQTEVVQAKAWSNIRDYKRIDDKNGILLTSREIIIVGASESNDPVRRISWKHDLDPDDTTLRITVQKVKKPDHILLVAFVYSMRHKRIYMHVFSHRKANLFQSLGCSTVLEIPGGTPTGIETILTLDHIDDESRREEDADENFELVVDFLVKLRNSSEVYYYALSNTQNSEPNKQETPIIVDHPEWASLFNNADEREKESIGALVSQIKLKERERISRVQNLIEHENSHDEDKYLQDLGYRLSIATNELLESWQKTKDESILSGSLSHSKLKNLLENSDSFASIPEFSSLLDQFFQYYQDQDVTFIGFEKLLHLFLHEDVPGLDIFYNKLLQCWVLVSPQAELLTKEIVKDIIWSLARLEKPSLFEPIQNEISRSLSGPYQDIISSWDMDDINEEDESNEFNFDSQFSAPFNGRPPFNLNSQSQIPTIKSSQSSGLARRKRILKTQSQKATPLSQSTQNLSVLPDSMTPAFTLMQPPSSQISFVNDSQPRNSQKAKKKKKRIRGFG
Sequence of CF with Rrn7 Δloop α7-α8 (P40992 other isoform, or with tags, fused parts or gaps | mutant, chain 2 of 3): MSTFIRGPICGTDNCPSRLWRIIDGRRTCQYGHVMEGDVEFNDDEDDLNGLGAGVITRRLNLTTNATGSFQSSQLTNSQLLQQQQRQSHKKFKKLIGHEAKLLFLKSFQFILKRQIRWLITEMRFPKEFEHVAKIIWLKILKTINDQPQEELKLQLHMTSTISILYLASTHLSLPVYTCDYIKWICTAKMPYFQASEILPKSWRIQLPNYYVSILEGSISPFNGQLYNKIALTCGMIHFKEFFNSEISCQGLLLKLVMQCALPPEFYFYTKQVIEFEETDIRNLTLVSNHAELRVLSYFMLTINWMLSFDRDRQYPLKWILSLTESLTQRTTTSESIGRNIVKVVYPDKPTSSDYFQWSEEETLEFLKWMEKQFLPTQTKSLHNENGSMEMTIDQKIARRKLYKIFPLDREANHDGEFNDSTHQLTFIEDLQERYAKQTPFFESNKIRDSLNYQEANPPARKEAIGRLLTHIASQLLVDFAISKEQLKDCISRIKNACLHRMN
Sequence of CF with Rrn7 Δloop α7-α8 (Q04712 whole entry, stated change not applied, chain 3 of 3): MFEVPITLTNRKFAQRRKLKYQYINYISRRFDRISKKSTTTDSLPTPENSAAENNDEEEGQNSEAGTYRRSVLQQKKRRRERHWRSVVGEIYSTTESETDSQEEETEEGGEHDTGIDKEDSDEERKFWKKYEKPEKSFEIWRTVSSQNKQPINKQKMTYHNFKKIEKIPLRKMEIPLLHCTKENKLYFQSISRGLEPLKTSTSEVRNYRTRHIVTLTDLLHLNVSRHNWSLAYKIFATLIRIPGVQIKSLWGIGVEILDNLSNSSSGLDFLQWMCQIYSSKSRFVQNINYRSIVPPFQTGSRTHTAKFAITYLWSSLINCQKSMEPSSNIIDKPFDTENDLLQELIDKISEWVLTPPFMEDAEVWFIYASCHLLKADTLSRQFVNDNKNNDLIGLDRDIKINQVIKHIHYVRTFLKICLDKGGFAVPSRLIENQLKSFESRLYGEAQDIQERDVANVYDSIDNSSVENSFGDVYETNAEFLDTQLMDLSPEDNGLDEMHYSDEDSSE

The target in a further data set is CF with Rrn7 Δα4a (Saccharomyces cerevisiae, UniProt P32786;P40992;Q04712 1-894;1-208+221-514;1-507, internal_change). Described as above. Particulars: protein: recombinant; tags: His (Ni-NTA purified); copies: 1;1;1; label: NTS -3 Atto647N; TS -5 Cy3; blunt.
Sequence of CF with Rrn7 Δα4a (P32786 whole entry, stated change not applied, chain 1 of 3): as the sequence (P32786 whole entry, stated change not applied, chain 1 of 3) above
Sequence of CF with Rrn7 Δα4a (P40992 other isoform, or with tags, fused parts or gaps | mutant, chain 2 of 3): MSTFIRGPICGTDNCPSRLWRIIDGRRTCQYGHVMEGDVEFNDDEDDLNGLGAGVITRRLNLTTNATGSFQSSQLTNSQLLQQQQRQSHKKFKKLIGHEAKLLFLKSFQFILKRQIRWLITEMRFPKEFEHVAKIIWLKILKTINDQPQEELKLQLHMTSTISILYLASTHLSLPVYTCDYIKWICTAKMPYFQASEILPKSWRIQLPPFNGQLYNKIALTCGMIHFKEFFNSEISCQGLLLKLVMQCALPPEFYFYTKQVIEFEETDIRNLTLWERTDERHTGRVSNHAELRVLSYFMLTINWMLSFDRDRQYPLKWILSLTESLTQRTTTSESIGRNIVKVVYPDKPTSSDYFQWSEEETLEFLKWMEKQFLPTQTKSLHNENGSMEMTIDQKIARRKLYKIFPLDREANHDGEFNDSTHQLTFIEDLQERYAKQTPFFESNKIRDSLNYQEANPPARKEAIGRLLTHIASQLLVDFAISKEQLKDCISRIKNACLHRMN
Sequence of CF with Rrn7 Δα4a (Q04712 whole entry, stated change not applied, chain 3 of 3): as the sequence (Q04712 whole entry, stated change not applied, chain 3 of 3) above
The target in data set [1] is RNA polymerase I;Rrn3;Core factor (CF) wild type: Rrn6/Rrn7/Rrn11;UAF … (Saccharomyces cerevisiae;Saccharomyces …, UniProt P10964;P22138;P07703;P46669;P50106;P20434;P20435;P28000;P20436;P32529;P22139;P40 …, |||||). As to the kind of experiment: size exclusion chromatography; complete early PIC, stable throughout SEC; EMSA: 20 mM HEPES/KOH pH 7.8, 10% glycerol, 200 mM KCl, 1 mM MgCl2, 0.1 mg/ml BSA, 1 mM DTT, 30 min, temperature not stated; 6% native gel, 0.5x TBE. Background: Size exclusion chromatography separates by hydrodynamic size, large species first.

B1: rDNA promoter -83 to +26 (EMSA; ID 4691/4692) (dsDNA)
DNA 1: AAAAGTAAGATTTTAGTTTGTAATGGGAGGGGGAATTTAGTCATGGAGTACAAGTGTGAGGAAAAGTAGTTGGGAGGTACTTCATACCAAAGGGGTTCAACACAAGGGT
DNA 2: ACCCTTGTGTTGAACCCCTTTGGTATGAAGTACCTCCCAACTACTTTTCCTCACACTTGTACTCCATGACTAAATTCCCCCTCCCATTACAAACTAAAATCTTACTTTT
As for B1, the binding result in the data set with CF with Rrn7 Δloop α7-α8 and in the data set with CF with Rrn7 Δα4a was “binds” in each case.

B2: rDNA promoter -155 to +8 (PIC scaffold; ID 4693/4694) (dsDNA)
DNA 1: AGCTTAAATTGAAGTTTTTCTCGGCGAGAAATACGTAGTTAAGGCAGAGCGACAGAGAGGGCAAAAGAAAATAAAAGTAAGATTTTAGTTTGTAATGGGAGGGGGGGTTTAGTCATGGAGTACAAGTGTGAGGAAAAGTAGTTGGGAGGTACTTCATGCGAAA
DNA 2: TTTCGCATGAAGTACCTCCCAACTACTTTTCCTCACACTTGTACTCCATGACTAAACCCCCCCTCCCATTACAAACTAAAATCTTACTTTTATTTTCTTTTGCCCTCTCTGTCGCTCTGCCTTAACTACGTATTTCTCGCCGAGAAAAACTTCAATTTAAGCT
Regarding B2, in data set [1], the binding result is on record as “binds”.
